The values that follow come from patent US5780265A, “Kunitz type plasma kallikrein inhibitors” (Genentech, Inc., priority 1995, dated 1998).

Common to all, as to type: biochemical
The target in experiment [1] is T1, Factor XIa (Homo sapiens, UniProt P03951).
T1 construct: purchased Haematologic Technologies Inc. (Essex Jct., Vt.)
Kind of experiment: Apparent equilibrium dissociation constant (Ki*) with FXIa. To be noted: at least 3 independent measurements.
Description: (§3) Serine proteases (1 to 20 nM) were assayed in the presence of 100 nM inhibitor. […] The degree to which FXIa was inhibited by selected inhibitors including the consensus mutants was further investigated by measuring the Ki *.

In experiment [2] the target is T2, plasma kallikrein (Homo sapiens, UniProt P03952).
T2 construct: Human plasma kallikrein and Factor XIIa were purchased; purchased Enzyme Research Laboratories, Inc. (South Bend, Ind.)
T2 sequence (P03952 391-638 limits assumed): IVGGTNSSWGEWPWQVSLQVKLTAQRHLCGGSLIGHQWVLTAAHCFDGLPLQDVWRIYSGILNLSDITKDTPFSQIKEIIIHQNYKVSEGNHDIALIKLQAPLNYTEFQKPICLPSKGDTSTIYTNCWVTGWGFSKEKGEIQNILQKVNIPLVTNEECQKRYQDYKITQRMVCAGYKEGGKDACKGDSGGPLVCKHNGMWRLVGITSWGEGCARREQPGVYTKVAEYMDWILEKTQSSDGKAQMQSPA
T2 sequence (P03952 20-390 limits assumed): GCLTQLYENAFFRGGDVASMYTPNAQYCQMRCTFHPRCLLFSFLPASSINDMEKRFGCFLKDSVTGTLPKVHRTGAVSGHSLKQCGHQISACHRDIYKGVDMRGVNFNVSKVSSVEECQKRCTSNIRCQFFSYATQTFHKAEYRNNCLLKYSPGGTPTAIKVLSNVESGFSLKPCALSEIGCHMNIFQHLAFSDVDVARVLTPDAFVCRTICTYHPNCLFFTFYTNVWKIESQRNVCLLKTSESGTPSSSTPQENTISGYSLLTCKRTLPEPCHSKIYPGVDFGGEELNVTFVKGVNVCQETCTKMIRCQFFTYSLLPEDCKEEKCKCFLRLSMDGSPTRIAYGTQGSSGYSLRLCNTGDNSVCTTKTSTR
Kind of experiment: Specificity assay, plasma kallikrein. To be noted: 100 nM inhibitor; plasma kallikrein 3.5 nM, 0.7 mM S2302; 2 h room temperature.
Description: (§4) Aliquots (30 μL) of various inhibitors diluted to 500 nM were incubated with each protease (100 μL) in the appropriate buffer. After incubation of the substrate/inhibitor mixes at room temperature for 2 h, the appropriate substrate (20 μL) was added, and the absorbance at 405 nm was monitored. […] The FXIa assay also contained 1 mg/mL BSA. The concentration of FXIa throughout refers to the concentration of active sites. For this experiment, the concentrations of thrombin, TF-FVIIa, FXa, FXIa, FXIIa, and plasmin are approximate and are determined based upon the manufacturers' specifications.
as §3

The target in experiment [3] is T1, Factor XIa. As to the kind of experiment: Specificity assay, Factor XIa. To be noted: 100 nM inhibitor; FXIa […], 0.7 mM S2366, 1 mg/mL BSA.
Description: as §4, §3
Experiment [4] has as its target T3, TF-FVIIa (tissue factor-Factor VIIa) (Homo sapiens, UniProt P08709).
T3 construct: purchased Haematologic Technologies Inc. (FVIIa); TF made in house; host or cells: E. coli (TF 1-243)
As to the kind of experiment: Specificity assay, TF-FVIIa. To be noted: 100 nM inhibitor; TF 77 nM-FVIIa 14 nM, 0.7 mM S2366.
Description: as §4, §3

Experiment [5] relates to intrinsic coagulation pathway. As to the kind of experiment: Activated partial thromboplastin time (APTT) clotting assay in normal human plasma. To be noted: 1 μM inhibitor. The protocol:
(§1) FIG. 5A and FIG. 5B. […] The uninhibited clotting times were 33.6 sec and 14 sec for the APTT and PT, respectively
(§2) Clotting times for normal human plasma were performed using an MLA Electra 800 Coagulometer (Medical Laboratory Automation, Inc. Pleasantville, N.Y.) and Dade reagents (Baxter Health Care Corp., Miami Fla.). The clotting time was determined by optical assessment.
For the activated partial thromboplastin time (APTT) assays, the activation time was set at 120 sec and acquisition time at 300 to 600 sec depending on the expected outcome of the assay. Citrated normal human plasma and inhibitor were incubated together. The sample (plasma and inhibitor) and activator (Actin FS) were automatically pipetted and incubated is together for 2 min at 37° C., then CaCl2 was added and clotting time determined by means of optical assessment. The total incubation time of inhibitor with plasma was ca. 3 min before addition of activator, and 5 min before addition of CaCl2.

Experiment [6] deals with extrinsic coagulation pathway. As to the kind of experiment: Prothrombin time (PT) clotting assay, tissue factor initiated. To be noted: normal human plasma, TF initiated. The protocol:
as §1, §2

T1 sequence (P03951 388-625 limits assumed): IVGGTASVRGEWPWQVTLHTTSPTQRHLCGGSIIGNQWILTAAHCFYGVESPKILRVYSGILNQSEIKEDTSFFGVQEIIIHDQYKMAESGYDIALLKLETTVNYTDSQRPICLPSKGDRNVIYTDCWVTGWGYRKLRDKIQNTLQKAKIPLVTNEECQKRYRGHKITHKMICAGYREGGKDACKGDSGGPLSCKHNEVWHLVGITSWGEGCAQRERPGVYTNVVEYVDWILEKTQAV
T1 sequence (P03951 19-387 limits assumed): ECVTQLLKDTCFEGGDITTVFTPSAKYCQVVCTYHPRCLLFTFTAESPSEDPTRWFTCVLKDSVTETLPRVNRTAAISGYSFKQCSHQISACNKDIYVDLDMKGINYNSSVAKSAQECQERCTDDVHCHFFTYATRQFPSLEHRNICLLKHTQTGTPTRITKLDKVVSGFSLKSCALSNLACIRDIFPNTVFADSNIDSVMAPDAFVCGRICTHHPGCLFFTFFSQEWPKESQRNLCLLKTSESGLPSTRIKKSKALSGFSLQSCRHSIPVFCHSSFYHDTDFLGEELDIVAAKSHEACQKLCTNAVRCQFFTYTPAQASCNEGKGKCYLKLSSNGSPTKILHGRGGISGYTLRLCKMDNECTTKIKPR
T3 sequence (P08709 213-466 limits assumed): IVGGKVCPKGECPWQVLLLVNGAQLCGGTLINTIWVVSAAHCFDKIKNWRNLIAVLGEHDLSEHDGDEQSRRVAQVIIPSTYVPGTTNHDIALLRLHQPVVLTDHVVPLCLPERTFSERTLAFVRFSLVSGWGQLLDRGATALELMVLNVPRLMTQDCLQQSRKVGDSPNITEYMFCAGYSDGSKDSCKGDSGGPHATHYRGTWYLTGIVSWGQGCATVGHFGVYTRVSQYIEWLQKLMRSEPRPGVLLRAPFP
T3 sequence (P08709 61-212 limits assumed): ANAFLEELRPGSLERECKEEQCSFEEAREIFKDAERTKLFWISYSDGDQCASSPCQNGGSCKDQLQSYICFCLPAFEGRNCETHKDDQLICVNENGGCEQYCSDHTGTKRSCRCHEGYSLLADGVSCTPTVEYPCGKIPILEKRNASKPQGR
T3 sequence (P13726 33-275 partner limits assumed): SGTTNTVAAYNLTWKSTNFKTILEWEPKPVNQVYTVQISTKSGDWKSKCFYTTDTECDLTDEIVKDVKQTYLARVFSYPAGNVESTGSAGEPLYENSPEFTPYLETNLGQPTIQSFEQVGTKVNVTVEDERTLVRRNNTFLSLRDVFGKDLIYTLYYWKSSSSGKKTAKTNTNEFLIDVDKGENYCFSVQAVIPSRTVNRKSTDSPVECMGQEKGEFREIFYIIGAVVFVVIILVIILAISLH

Regarding “APPI: 58 amino acid Kunitz domain from human Alzheimer's disease amyloid β-protein precursor, residues 287-344; here Met52 replaced with Ala [reference compound]”, in experiment [1], the Ki was determined as 2.7 ± 1.4 nM. In experiment [2], the “fraction of remaining proteolytic activity, plasma kallikrein” value is given as 0.81. The “fraction of remaining proteolytic activity, Factor XIa” value in experiment [3] stood at 0.03. Further, the “fraction of remaining proteolytic activity, TF · Factor VIIa” value in experiment [4] came out at 0.60. In addition, the “fold prolongation of clotting time, APTT” value in experiment [5] amounted to 2.8 fold. Further, in experiment [6], the “prolongation of clotting time in PT assay (in words)” value is listed as “neither KALI-DY, BPTI, nor APPI appreciably prolonged”.
